Laboratory results: PMC8352653 (Cell Reports, 2021)

How the values were obtained:
[1] = target: recombinant stabilized trimeric prefusion ectodomain of the SARS-CoV-2 S protein (S6P_(ecto)) (SARS-CoV-2, UniProt P0DTC2)
[2] = target: S protein C-terminal S2 region expressed on HEK293T cells (SARS-CoV-2, Wuhan-Hu-1, UniProt P0DTC2); assay: flow cytometry on cells
SARS-CoV-2 RBD = SARS-CoV-2 RBD (SARS-CoV-2, Wuhan-Hu-1 (assumed), UniProt P0DTC2); assay: ELISA

B1: COV2-2164 (antibody, V domains shown)
VH: QVQLVQSGAEVKKPGSSVKVSCKASGGTFSSYAISWVRQAPGQGLEWMGGIIPIFGTANYAQKFQGRVTITADESTSTGYMQLSSLRFEDTAVYYCARTSHYDSSGSYFEYWGQGTLVTVSS
VL: EIVLTQSPATLSLSPGERATLSCRASQSVSSYLAWYQQKPGQAPRLLIYDASNRATGIPARFSGSGSGTDFTLTISSLEPEDFAVYYCHKRSNWPPSLTFGGGTKVEIK
binding result [1]: binds

B2: CnC2t1p1_B10 (antibody, V domains shown)
VH: QVQLVQSGAEVKKPGSSVKVSCKASGGTFSSYAISWVRQAPGQGLEWMGGIIPIFGTANYAQKFQGRVTITADKSTSTAYMELSSLRSEDTAVYYCARVSGYDSSGYWGDYWGQGTLVTVSS
VL: EIVLTQSPATLSLSPGERATLSCRASQSVSSYLAWYQQKPGQAPRLLIYDASNRATGIPARFSGSGSGTDFTLTISSLEPEDFAVYYCQQRSNWPPALTFGGGTKVEIK
binding result [2]: binds

B3: COV2-2002 (antibody, V domains shown)
VH: EVQLVESGGGLVQPGGSLRLSCAASGFTFSFYWMSWVRQAPGKGLEWVANIKQDGSEKYYVDSVKGRSTISRDNAKNSLYLQMNSLRAEDTAVYYCARVGSSSWYFDYWGQGTLVTVSS
VL: not shown
binding result [2]: binds

B4: COV2-2333 (antibody, V domains shown)
VH: EVQLVESGGGLVQPGGSLRLSCAASGFTFSIYWMSWVRQAPGKGLQWVANIKQDASEKYYVDSVKGRFTISRDNAKNSLYLQMNSLRAEDTAVYYCARLGGSSWHFDYWGQGTLVTVSS
VL: SYELTQPPSVSVSPGQTASITCSGDKLGDKYSSWYQQKPGQSPVLVIYEDTKRPSGIPERFSGSNSGNTATLTISGTQAMDEADYYCQAWSSSTAVFGGGTKLTVL
binding result [2]: binds

B5: COV2-2531 (antibody, V domains shown)
VH: QVQLQESGPGLVKPSETLSLTCSVSGGSIRSYFWNWVRQPPGKGLEWIGYIYYSGSTNYKPSFKSRVTISLDTSKNQISLKLSSVTAADTAVYYCARATWLRDAFGIWGQGTMVTVSS
VL: NFMLTQPHSVSESPGKTVTISCTGNSGSIASNYVQWYQQRPGSAPTTVIYEDSQRPSGVPDRFSGSIDSSSNSASLTISGLKTEDEADYYCQSFDSGNVVFGGGTKLTVL
binding result (SARS-CoV-2 RBD): binds

B6: C126 (antibody, V domains shown)
VH: QVQLQESGPGLVKPSETLSLSCAVSGGSIGSYFWSWIRQPPGKGLEWIGYLHYSGSTNYNPSLKSRVTISVDTSKNQFSLKLSSVTAADTAVYYCARLQWLRGAFDIWGQGTMVTVSS
VL: NFMLTQPHSVSESPGKTVTISCTGSSGSIASNYVQWYQQRPGSAPTTVINEDNQRPSGVPDRFSGSIDSSSNSASLTISGLKTEDEADYYCQSYDSSNLVFGGGTKLTVL
binding result (SARS-CoV-2 RBD): binds

B7: group 3 germline revertant (antibody, V domains shown)
VH: QVQLQESGPGLVKPSETLSLTCTVSGGSISSYYWSWIRQPPGKGLEWIGYIYYSGSTNYNPSLKSRVTISVDTSKNQFSLKLSSVTAADTAVYYCARATWLRDAFGIWGQGTMVTVSS
VL: NFMLTQPHSVSESPGKTVTISCTGSSGSIASNYVQWYQQRPGSAPTTVIYEDNQRPSGVPDRFSGSIDSSSNSASLTISGLKTEDEADYYCQSYDSSNVVFGGGTKLTVL
binding result (SARS-CoV-2 RBD): binds
